PMC3986616, “Identification and functional characterization of a flax UDP-glycosyltransferase glucosylating secoisolariciresinol (SECO) into secoisolariciresinol monoglucoside (SMG) and diglucoside (SDG)” (BMC Plant Biology, 2014)

Tests used:
[1] = substrate: O=c1ccn([C@@H]2O[C@H](CO[P@@](=O)(O)O[P@@](=O)(O)O[C@H]3O[C@H](CO)[C@@H](O)[C@H](O)[C@H]3O)[C@@H](O)[C@H]2O)c(=O)[nH]1; assay: UPLC-MS glucosylation assay, SDG formation, Lineweaver-Burk; type: biochemical, Linum usitatissimum; details: SDG production, 280 μM SECO fixed, pH 8.0, 30°C, 1 mM NaCl, 80 μg protein
[2] = substrate: COc1cc(C[C@@H](CO)[C@H](CO)Cc2ccc(O)c(OC)c2)ccc1O; assay: as above; type: biochemical, Linum usitatissimum; details: SDG production (sequential glucosylation via SMG), 1.67 mM UDP-glucose fixed, pH 8.0, 30°C, 1 mM NaCl, 80 μg protein

B1: UGT74S1 (Linum usitatissimum) (protein)
chain: MAGDEREKAHCLVVPAAAQGHFTPLLQFSKRLIPKRIRVTLALTRFIHSTMTVTAQSGIHIDTISDGFDHSGLILQDPEHYSQTFRRVGSETLTDLIRKQSESRHPVHCIIYDASMPWFLDVAKRFGIVGAAFLTQSCAVNAIYYHLREGTIKRPVVSDPAAGTLVIDGLPPLEVSDLPSFIWDDLHTEFLAAHLRQFSNDGADWVFCNTVYQLELEAVDWLTKQWLINFRTIGPTIPSFYLDKQIPDDKDYDISIFNPQNQTCMNWLQSKPDGSVVYVSFGSLARLSPQQTEELYFGLKNSNHYFLWVVRESEVAKLPKEEYLSGEKGLVVSWCSQLQVLASGKVGCFVTHCGWNSTLEALSLGVPMVAMPECGDQLTNAKFIKDVWKTGVRAEADDGKGIMWGMIKREVIERCIREVMEGEETRRNADKWGKIIKEAVVEGGSSDKNTEDFATSLINFAETFQFSC
**Q.** For B1, which Km [1] is on record?
**A.** 1188 µM

**Q.** What about the Km [2] of the same protein?
**A.** 79 µM

**Q.** What about the kcat [2] of the same protein?
**A.** 0.89 s⁻¹
